This data set deals with the molecule itself. Put plainly: in vitro recrystallisation (self-assembly) seen by electron microscopy (REM, TEM); FPLC-purified mSbsC-EGFP, denatured in Gua-HCl, dialysed against dH2O over night; assembled structures negatively stained with 3% ammonium molybdate pH 7.2.

From publication PMC1262761, “Expression and cytosolic assembly of the S-layer fusion protein mSbsC-EGFP in eukaryotic cells” (Microbial Cell Factories, 2005) come the findings set out here.

B1: mSbsC-EGFP fusion protein (mature S-layer protein SbsC, aa 31-1099, of Geobacillus stearothermophilus ATCC 12980 fused to EGFP), from E. coli (natural protein, UniProt O68840 31-1099, looked up)
chain: ATDVATVVSQAKAQMKEAYYTYSHTVTETGQFPDIKDVYAAYNKAKQAYANAVAVVNKAGGAKKDAYLADLQAIYETYVFKANPKSGEARVATYIDAYNYATKLDKMRQELKAAVDAKDLKKAEELYHKISYELKTRTVILDRVYGQSTRELLRSTFKADAQALRDRLIYDITVAMKAREAQDAVKAGNLDKAKAALDQVNQYVSKVTDAFKAELQKAAQDAKAAYEAALTPKVESVSAIDSTSFKVTFTKPVDKATAIPKNFSITLKGTETKLYPKSVEVSESGLTATVTLYDTLVDGKTYTVVTSGLKDTAGKEFETSTNEFTYNKPVPASITFNFNKLPEDSAVDLTKYVTVKDAAGNVIKSGFELEFTSSEKLTQGKFINTTGKKSVIVNATVKGTNVTTGNVILAVEDEKAAEVSELKLTKDNKEVVTLYANGNAFDKDGNQISSGTLTLTAKFKDQYGNELTGKVAGTDYTFESLNPEVLVVAPDGSVTPIVPGTALVKVKYGEVTKTIPVTVKANPVLETIAVDSTGVSVAKGQKATFKVTLKDQYGNKFTGNVNVTSDKTETATVSVSNSGIGQSEYTVTVNGVAEGSTTITIKSGTKEVKVPVNVVAGGPVANYQIKVLDDGKIDKSATESPANNDVQLKVYAVDANGNIVGDITNDVTITSEATDTNGVIVNASKSTANGDTVYVITDNGSKKVGKETLTVKLGTVTLGTVDVEVIDTTLKATVVTKKADLIELDAADNGDALAKLLANLDIKDQNGNPMVDSAATPNTNEKLQALKSVLSGIVSSDTSVIGSVSNVDNLKDDASISGLAVKKAGTVTLTLVFNEDSKIAPIAITVKAPAATQDGVTVTGLDLVPGVTGVGKTKFTATDKIKSGHKLYYAVDDSAVPAPAVGTTRNSTKFANEITVGTTEVAANAGQIITVIEVDSSDRVVGYKTFTVEAADLSVAADKTGFTATVTPTGGNQVTTGKTLLAVSDLANGHKLYAAAAGSSAAAAPVKGIAYTDTTVRTTYGTEVTSGTVEVDAQDGQHISIIEVDENGKVVGYKDYTITGIQIGTKSAS
notes: S-layer protein SbsC of Geobacillus stearothermophilus ATCC 12980, mature part, aa 31-1099 (without the 30 aa N-terminal secretion signal); an ATG initiation codon was introduced 5' of the reading frame by the primer; A Met from the introduced ATG precedes residue 31; A two-residue linker (Leu-Glu, from the XhoI site) stands between SbsC and the EGFP reading frame (720 bp, from the Clontech …)
B1: the binding result was “binds”.
